Read-outs that look alike come from different tables or passages of the source.

The values that follow come from patent US20100280227A1 (Genentech, published 2010).

Common to all, as to experiment: phage competition ELISA
In general terms: ELISA stands for enzyme-linked immunosorbent assay.

The target in experiment [1] is T1, human BR3 extracellular domain (human, UniProt Q96RJ3 1-61).
T1 construct: biotinylated where used as tracer; also called hBR3-ECD; BR3-ECD

The target of experiment [2] is T2, mouse BR3 extracellular domain (mouse, UniProt Q9D8D0 1-64).
T2 construct: also called mBR3-ECD; mBR-ECD
T2 sequence: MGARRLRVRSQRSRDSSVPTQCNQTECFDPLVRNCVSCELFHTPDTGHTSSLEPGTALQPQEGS

For experiment [3], the target named is T1, human BR3 extracellular domain. The source holds these as a separate data set.
The target in experiment [4] is T2, mouse BR3 extracellular domain. This is another data set of the same source.

B1: 27 (Fab, V domains shown)
VH: EVQLVESGGGLVQPGGSLRLSCAASGFTISSNSIHWVRQAPGKGLEWVAWITPSDGNTDYADSVKGRFTISADTSKNTAYLQMNSLRAEDTAVYYCARRVCYNHLGVCAGGMDYWGQGTLVTVSS
VL: DIQMTQSPSSLSASVGDRVTITCRASQDVSTAVAWYQQKPGKAPKLLIYSASFLYSGVPSRFSGSGSGTDFTLTISSLQPEDFATYYCQQSRMSPPTFGQGTKVEIKR
notes: also called V3-27
In general, IC50 refers to the concentration that inhibits the measured activity by half. In the case of B1, the IC50 came to 9.4 nM in experiment [1] and 1.4 nM in experiment [2].

B2: V3-46 phage clone (Fab, V domains shown)
VH: EVQLVESGGGLVQPGGSLRLSCAASGFTISNSSIHWVRQAPGKGLEWVAWVLPSVGFTDYADSVKGRFTISADTSKNTAYLQMNSLRAEDTAVYYCARRVCYNRLGVCAGGMDYWGQGTLVTVSS
VL: DIQMTQSPSSLSASVGDRVTITCRASQDVSTAVAWYQQKPGKAPKLLIYSASFLYSGVPSRFSGSGSGTDFTLTISSLQPEDFATYYCQQSQISPPTFGQGTKVEIKR
notes: also called V3-46 WT; clone 46
Consider B2, for which the IC50 was 0.2 nM in experiment [1] and 0.8 nM in experiment [2].

B3: V3-46s-31 phage clone (Fab, V domains shown)
VH: EVQLVESGGGLVQPGGSLRLSCAASGFTISSSSIHWVRQAPGKGLEWVAWVLPSVGFTDYADSVKGRFTISADTSKNTAYLQMNSLRAEDTAVYYCARRVCYNRLGVCAGGMDYWGQGTLVTVSS
VL: DIQMTQSPSSLSASVGDRVTITCRASQDIATSVAWYQQKPGKAPKLLIFAASYLFSGVPSRFSGSGSGTDFTLTISSLQPEDFATYYCQQSQVSPPTFGQGTKVEIK
For B3, the IC50 was found to be 0.12 nM in experiment [3] and 0.342 nM in experiment [4].

B4: V3-46s-29 phage clone (Fab, V domains shown)
VH: EVQLVESGGGLVQPGGSLRLSCAASGFTISSSSIHWVRQAPGKGLEWVAWVLPSVGFTDYADSVKGRFTISADTSKNTAYLQMNSLRAEDTAVYYCARRVCYNRLGVCAGGMDYWGQGTLVTVSS
VL: DIQMTQSPSSLSASVGDRVTITCRASEEIATAVAWYQQKPGKAPKLLIFAASFLYSGVPSRFSGSGSGTDFTLTISSLQPEDFATYYCQQSEVSPPTFGQGTKVEIK
As to B4, the IC50 in experiment [3] turned out to be 0.08 nM; in experiment [4], 0.55 nM.

B5: V3-46s-10 phage clone (Fab, V domains shown)
VH: EVQLVESGGGLVQPGGSLRLSCAASGFTISSSSIHWVRQAPGKGLEWVAWVLPSVGFTDYADSVKGRFTISADTSKNTAYLQMNSLRAEDTAVYYCARRVCYNRLGVCAGGMDYWGQGTLVTVSS
VL: DIQMTQSPSSLSASVGDRVTITCRASEDISSAVAWYQQKPGKAPKLLIFAASYLFSGVPSRFSGSGSGTDFTLTISSLQPEDFATYYCQQSQVSPPTFGQGTKVEIK
For B5, the IC50 is 0.05 nM in experiment [3] and 0.193 nM in experiment [4].

B6: V3-46s-1 phage clone (Fab, V domains shown)
VH: EVQLVESGGGLVQPGGSLRLSCAASGFTISSSSIHWVRQAPGKGLEWVAWVLPSVGFTDYADSVKGRFTISADTSKNTAYLQMNSLRAEDTAVYYCARRVCYNRLGVCAGGMDYWGQGTLVTVSS
VL: DIQMTQSPSSLSASVGDRVTITCRASEDIATSVAWYQQKPGKAPKLLIFAASFLYSGVPSRFSGSGSGTDFTLTISSLQPEDFATYYCQQSQISPPTFGQGTKVEIK
Regarding B6, the figures for the IC50 in experiment [3] and in experiment [4] were 0.07 nM and 0.3 nM, respectively.

B7: V3-46s-37 phage clone (Fab, V domains shown)
VH: EVQLVESGGGLVQPGGSLRLSCAASGFTISSSSIHWVRQAPGKGLEWVAWVLPSVGFTDYADSVKGRFTISADTSKNTAYLQMNSLRAEDTAVYYCARRVCYNRLGVCAGGMDYWGQGTLVTVSS
VL: DIQMTQSPSSLSASVGDRVTITCRASQDVATAVAWYQQKPGKAPKLLIFAASFLYSGVPSRFSGSGSGTDFTLTISSLQPEDFATYYCQQSQISPPTFGQGTKVEIK
Regarding B7, the IC50 worked out at 0.131 nM in experiment [3] and 0.32 nM in experiment [4].

B8: 37 (Fab, V domains shown)
VH: EVQLVESGGGLVQPGGSLRLSCAASGFSISRRSIHWVRQAPGKGLEWVAWITPLYGSTHYADSVKGRFTISADTSKNTAYLQMNSLRAEDTAVYYCARRVCYNRLGVCAGGMDYWGQGTLVTVSS
VL: DIQMTQSPSSLSASVGDRVTITCRASQDVSTAVAWYQQKPGKAPKLLIYSASFLYSGVPSRFSGSGSGTDFTLTISSLQPEDFATYYCQQSRISPPTFGQGTKVEIKR
notes: also called V3-37
B8: the IC50 was found to be 0.7 nM in experiment [1] and 1.3 nM in experiment [2].

B9: V3-46s-12 phage clone (Fab, V domains shown)
VH: EVQLVESGGGLVQPGGSLRLSCAASGFTIASSSIHWVRQAPGKGLEWVAWVLPSVGFTDYADSVKGRFTISADTSKNTAYLQMNSLRAEDTAVYYCARRVCYNRLGVCAGGMDYWGQGTLVTVSS
VL: DIQMTQSPSSLSASVGDRVTITCRASEDISSAVAWYQQKPGKAPKLLIFAASFLYSGVPSRFSGSGSGTDFTLTISSLQPEDFATYYCQQSQISPPTFGQGTKVEIK
notes: differs from V3-46s in CDR-H1 as well
Take B9: the IC50 is 0.053 nM in experiment [3] and 0.209 nM in experiment [4].

B10: 34 (Fab, V domains shown)
VH: EVQLVESGGGLVQPGGSLRLSCAASGFSISNHSIHWVRQAPGKGLEWVAWVTPSYGITDYADSVKGRFTISADTSKNTAYLQMNSLRAEDTAVYYCARRVCYNRLGVCAGGMDYWGQGTLVTVSS
VL: DIQMTQSPSSLSASVGDRVTITCRASQDVSTAVAWYQQKPGKAPKLLIYSASFLYSGVPSRFSGSGSGTDFTLTISSLQPEDFATYYCQQSRTTPPTFGQGTKVEIKR
notes: also called V3-34
On to B10, for which the values for the IC50 in experiment [1] and in experiment [2] were 0.3 nM and 6.4 nM, respectively.

B11: 35 (Fab, V domains shown)
VH: EVQLVESGGGLVQPGGSLRLSCAASGFTISSNSIHWVRQAPGKGLEWVAWVTPGVGSTDYADSVKGRFTISADTSKNTAYLQMNSLRAEDTAVYYCARRVCYNRLGVCAGGMDYWGQGTLVTVSS
VL: DIQMTQSPSSLSASVGDRVTITCRASQDVSTAVAWYQQKPGKAPKLLIYSASFLYSGVPSRFSGSGSGTDFTLTISSLQPEDFATYYCQQSLMTPPTFGQGTKVEIKR
notes: also called V3-35
Consider B11, for which the IC50 in experiment [1] came to 0.8 nM; in experiment [2], 21.9 nM.

B12: V3-46s-34 phage clone (Fab, V domains shown)
VH: EVQLVESGGGLVQPGGSLRLSCAASGFTISSSSIHWVRQAPGKGLEWVAWVLPSVGFTDYADSVKGRFTISADTSKNTAYLQMNSLRAEDTAVYYCARRVCYNRLGVCAGGMDYWGQGTLVTVSS
VL: DIQMTQSPSSLSASVGDRVTITCRASEDISSAVAWYQQKPGKAPKLLIFSASFLFSGVPSRFSGSGSGTDFTLTISSLQPEDFATYYCQQSQVSPPTFGQGTKVEIK
As for B12, the IC50 in experiment [3] was 0.058 nM; in experiment [4], 0.79 nM.

B13: V3-46s-33 phage clone (Fab, V domains shown)
VH: EVQLVESGGGLVQPGGSLRLSCAASGFTISSSSIHWVRQAPGKGLEWVAWVLPSVGFTDYADSVKGRFTISADTSKNTAYLQMNSLRAEDTAVYYCARRVCYNRLGVCAGGMDYWGQGTLVTVSS
VL: DIQMTQSPSSLSASVGDRVTITCRASEEISTAVAWYQQKPGKAPKLLIFSASYLYSGVPSRFSGSGSGTDFTLTISSLQPEDFATYYCQQSEVSPPTFGQGTKVEIK
For B13, the IC50 in experiment [3] turned out to be 0.1 nM; in experiment [4], 0.724 nM.

B14: V3-46s-13 phage clone (Fab, V domains shown)
VH: EVQLVESGGGLVQPGGSLRLSCAASGFTISSSSIHWVRQAPGKGLEWVAWVLPSVGFTDYADSVKGRFTISADTSKNTAYLQMNSLRAEDTAVYYCARRVCYNRLGVCAGGMDYWGQGTLVTVSS
VL: DIQMTQSPSSLSASVGDRVTITCRASEEIATAVAWYQQKPGKAPKLLIFAASYLFSGVPSRFSGSGSGTDFTLTISSLQPEDFATYYCQQSQVAPPTFGQGTKVEIK
As for B14, the IC50 stood at 0.08 nM in experiment [3] and 0.713 nM in experiment [4].

B15: V3-46s-40 phage clone (Fab, V domains shown)
VH: EVQLVESGGGLVQPGGSLRLSCAASGFTISSSSIHWVRQAPGKGLEWVAWVLPSVGFTDYADSVKGRFTISADTSKNTAYLQMNSLRAEDTAVYYCARRVCYNRLGVCAGGMDYWGQGTLVTVSS
VL: DIQMTQSPSSLSASVGDRVTITCRASEEIATSVAWYQQKPGKAPKLLIFSASYLYSGVPSRFSGSGSGTDFTLTISSLQPEDFATYYCQQSQVSPPTFGQGTKVEIK
On to B15, for which the values for the IC50 in experiment [3] and in experiment [4] were 0.164 nM and 0.53 nM, respectively.

B16: V3-46s-45 phage clone (Fab, V domains shown)
VH: EVQLVESGGGLVQPGGSLRLSCAASGFTISSSSIHWVRQAPGKGLEWVAWVLPSVGFTDYADSVKGRFTISADTSKNTAYLQMNSLRAEDTAVYYCARRVCYNRLGVCAGGMDYWGQGTLVTVSS
VL: DIQMTQSPSSLSASVGDRVTITCRASEDVSSAVAWYQQKPGKAPKLLIFAASYLFSGVPSRFSGSGSGTDFTLTISSLQPEDFATYYCQHSQVSPPTFGQGTKVEIK
Take B16: the IC50 in experiment [3] was found to be 0.121 nM; in experiment [4] it was 0.37 nM.

B17: 41 (Fab, V domains shown)
VH: EVQLVESGGGLVQPGGSLRLSCAASGFSIRNNSIHWVRQAPGKGLEWVAWVLPSNGVTDYADSVKGRFTISADTSKNTAYLQMNSLRAEDTAVYYCARRVCYNRLGVCAGGMDYWGQGTLVTVSS
VL: DIQMTQSPSSLSASVGDRVTITCRASQDVSTAVAWYQQKPGKAPKLLIYSASFLYSGVPSRFSGSGSGTDFTLTISSLQPEDFATYYCQQSGISPPTFGQGTKVEIKR
notes: also called V3-41; clone 41
As for B17, the concentration for half-maximal inhibition (IC50) in experiment [1] was determined as 0.4 nM; in experiment [2], 0.6 nM.

B18: V3-46s-7 phage clone (Fab, V domains shown)
VH: EVQLVESGGGLVQPGGSLRLSCAASGFTISSSSIHWVRQAPGKGLEWVAWVLPSVGFTDYADSVKGRFTISADTSKNTAYLQMNSLRAEDTAVYYCARRVCYNRLGVCAGGMDYWGQGTLVTVSS
VL: DIQMTQSPSSLSASVGDRVTITCRASEDISSSVAWYQQKPGKAPKLLIFSASFLFSGVPSRFSGSGSGTDFTLTISSLQPEDFATYYCQQSEVSPPTFGQGTKVEIK
Consider B18, for which the IC50 turned out to be 0.19 nM in experiment [3] and 0.96 nM in experiment [4].
